{
  "source": "the DeepSol protein solubility set",
  "data": [
    {"experiment": "soluble on expression in E. coli; label from the status in PepcDB or PDB records", "values": [
      {"sequence": "MGSDKIHHHHHHMSYELARVPRGEHHFHSVRVRTGDVLGLIEKTAFFELDDTLFVYPFYQRFSYQVNERHQEDGVSGSSPIHQHHSSVAASVRNYQPGDRFAALDWKTSARRSQLMTKEFEPSRSKNLFLLMDRFSSDAFEEVVSVTASILHSVLKNGAGAGLASIGKEKNIFPIQEGDQHFKHMLRHLAIAHCDAADPISRYAREELGKPSVRQADQVVVTGQLTEDMLHLAEIGGGRVTVILAKEKDAELSQAENVMIERMMKRQIRVRIMRGGRVSRVV", "soluble on expression in E. coli": "not soluble"},
      {"sequence": "MDTVTKLSIIIPAWNEETGIARTLETLLALTAGRGDTEIIVSVSGNDRTKAIARTFPVVVCHSEKGRAVQMNAGAKLATGSILYFLHADTTPPPSFCDDIFSAIERGARAGCFRMTFDDPDWLMQLYGWFTQFPLPVCRGGDQSLFITKELFGQIGGFDERLQIMEDIEIIDRLQRHAGFHILDSTVTTSARKYHTNGTVRLQAIFGTIHLMYALGFSQKNIVAFYRDSIRLEHHHHHH", "soluble on expression in E. coli": "not soluble"},
      {"sequence": "MLEGVVRRREGPDYTVRIKPVARSRILTLPDAPERSSPVIVGIDPGITTGLAVLDINGRLLHAESSKSLDRSRVTEIVYGLGRPVIVAVDVADPPETAKKLAAQWGAMLYTPPADLTTSEKWGLARRVLGSSVEDTHVRDLEHHHHHH", "soluble on expression in E. coli": "not soluble"},
      {"sequence": "MFRLLFVSPRIAPNTGNAIRTCAATGCELHLVEPLGFDLSEPKLRRAGLDYHDLASVTVHASLAHAWEALSPARVFAFTAQATTLFTNVGYRAGDVLMFGPEPTGLDEATLADTHITGQVRIPMLAGRRSLNLSNAAAVAVYEAWRQHGFAGAV", "soluble on expression in E. coli": "not soluble"},
      {"sequence": "MLFDLDGTVWEGGRALPFAVDSINQVNLPLMYVTNNASRGPEVVASLLSDMGIFTQPEQVLTSAQAAIDLALKEVPVGSNVLVLGTDSFKSLAAEAGYMVVNSADMEPVAVFHGHNPATSWTELSEAALAIRCGAKYYASNLDTTLPSERGLCVGNGSMVAAVVSATGVQPVSAGKPEAAMFHVAAEKLASERPLAVGDRLNTDIAGGVAAGFDTLHLLTGVSQHWALVHAIESERPTLIAEDLRALSSDRSVLMPQLQGDFNAYLQGTEIVLNGGSTASTSTEALRSVLSVAWQSAEFGGTVKPVSEHAIRCMSEWR", "soluble on expression in E. coli": "not soluble"},
      {"sequence": "QTVVTGKVIDSETSEPLIGVSVSTGQGASLRGVTTDMDGGFRFEVPAKSVLTFRCVGYATVTRSIGRGSQEDLGTILLDPQAIGLDEIQVIASVVPKDRMTPVPVSNIRVADIQAASLNVEFPELVKSTPSTYTTKGSGGFGDGRTNVRGFDTYNFGVLINGVPVNGMEDGKVYWSNWSGLMNQASTIQIQRGLGASKLGISSVGGTMNIITKTTDANTGGSAYVGMGNDGLHKESFSISTGMND", "soluble on expression in E. coli": "not soluble"},
      {"sequence": "VSDGEQAKSRRRRGRRRGRRAAATAENHMDAQPAGDATPTPATAKRSRSRSPRRGSTRMRTVHETSAGGLVIDGIDGPRDAQVAALIGRVDRRGRLLWSLPKGHIELGETAEQTAIREVAEETGIRGSVLAALGRIDYWFVTDGRRVHKTVHHYLMRFLGGELSDEDLEVAEVAWVPIRELPSRLAYADERRLAEVADELIDKLQSDGPAALPPLPPSSPRRRPQTHSRARHADDSAPGQHNGPGPGP", "soluble on expression in E. coli": "not soluble"},
      {"sequence": "MTAAATTTVSTAAAMQTAALASLYSQAAVAIINNKGDVGKALKDLGTSDTVKQIVTSALTAGALNQMGADIAQLNSKVRTELFSSTGNQTIANLGGRLATNLSNAGISAGINTAVNGGSLKDNLGNAALGALVNSFQGEAASKIKTTFSDDYVAKQFAHALAGCVSGLVQGKCKDGAIGAAVGEIVAESILGGRNPATLSDAEKHKVISYSKIIAGSVAALNGGDLEHHHHHH", "soluble on expression in E. coli": "not soluble"},
      {"sequence": "MATFGFLSAPLKSTNEVDLVKPLTSYIDNVYNTSDNNRSDVAEAVQELNKLRSKACCQPLDKHQSALDVLTRYYDQLVAIENKIIISATQNPVVFKWKDAFDKGSLFSSRASLSLSDGSFERAAVLFNIGSLMSQIGAAQQFHTDDEIKVSAKLFQQSAGVFARLRDVVLGMVQQEPTPDLMPDTLAALSALMTAQAQEAIYIKGHKDKMKATSMVKISAQVAEFYSEAQKMMSKDIVRGLWDKDWSAIVSGKNLAYQALAQYHQSEVCGEARQIGEQLSRLAESLKLFDTAQKYLPRDITGIWDIYPSVSKAHAAAKKDNDFIYHEKVSDFRTLPTLPKAVLAKPTPMQTPMTPSFRDMFAVLVPVQVHNAMQSYDARKAELVNMETVRMREATQLMNGVLASLNLPAALDDVTSTETLPESLKLKSAKLKQNGGSSEIMRLFSELPTLYQRNEDILTETSRILNEEKESDDTMRKQLGTKWTRMSSEQLTGPLVTEIGKYRGILHTASNADKMVKEKFESHRQGIELLSKNESELRSSIPGQTAHATGETDTVRQLRQFMSQWNEVTTDRELLEKELKNTNCDIANDFLKAMAENQLINEEHISKEKIAQIFGDLKRRVQSSLDTQETLMNQIQAANNTFTGEKTGSSTGAERERILKMLAQASDAYVELKANLEEGTKFYNDLTPILVRLQQKVSDFAFARQTEKEDLMRQLQLSIVSGTNAAQSPANAPPRPPPPRPAAPSVESPIPPPRTQQSMQATPGAPPQYNPYQQQQQPQMQQFQQHPGYYQQPMPYGQPQPMFQPQYQPTFAAPYPTFPGAFPSYQQQWPQQQQQGGFPPNPQFGQQNQQQGGGGGANPFQ", "soluble on expression in E. coli": "not soluble"},
      {"sequence": "SLTTENQNPLVLDKNEEISQQKADDIRLQLRQEPEVKRLAQQIDVKNQMELLEYGKEPAVEISKFSDRILGMMKTTSVTDSGTMLTQLGKIMDRFDKNDFDEPKGLMAKIFKRGGSMIEKIFKKYQTLGGEIEKIHVEISKYKDEMTKTNYTLDEMYENNIKYYMELEKYVVAGQMKLEEMQSILPSYEEKAASGNQLAQMQLDTLRNGIQALEERVYDLDMARMVALQTAPQIRLLQRGNAKLIGKINSAFIITIPIFKNGIIQAVTVKRQKLVADSMSELDRRTNEMLKRNAENISSQSVEIARMAGRPSIDIETIESSWNTIVSGMQETKQIEEENKRLREDGARRIAQLQDNIKKAALQQ", "soluble on expression in E. coli": "soluble"},
      {"sequence": "MPHKNTKSNVQKITASVASVIVSTGIVMNSSNRRVKATGKREDEIVEVESLKRADTETTKAAAVQTPKINQTKKMSHRTQKVTQMIHYVDEDERPVYDDYTASLIFEQTGILDNVTGKQTWNSNWLPKTTATFSAVEHPVVRNHHLVNPEINEVSAYDVEVTDDTFKNPLLKVHKVVYAHDIEPIKRTQVVTQTIHYRYEDGAVAHDDHVVSLIFTQSGKRDLTNGKEIWDSKWSLTQTFEALPSPVIIGYTADKPMVGPDEVTVDSKNFLDKQNREETVIYSANTITQNKKDGISEEKNVNNSVAVAPLKSAVMIGGVISILKFKRLMVIIKNKKDHKLEHHHHHH", "soluble on expression in E. coli": "soluble"},
      {"sequence": "MARWERIVDGVKSIALMRKKIITRGKRIALFVDGPNILRKELGIHLEDIVEALSKLGNIRVAKVILNQYAPQSLIEAVSNQGFEPVIVAGEIGVKMAVEAMREVYNPNIDMIALATRNTEFVPIILKAKEKGKETAIIGVEHGLSSALKHAADYVIILKPRGEKIEERHHEDSEERREGGRGA", "soluble on expression in E. coli": "not soluble"},
      {"sequence": "MFTKRHRITLLFNANKAYDRQVVEGVGEYLQASQSEWDIFIEEDFRARIDKIKDWLGDGVIADFDDKQIEQALADVDVPIVGVGGSYHLAESYPPVHYIATDNYALVESAFLHLKEKGVNRFAFYGLPESSGKRWATEREYAFRQLVAEEKYRGVVYQGLETAPENWQHAQNRLADWLQTLPPQTGIIAVTDARARHILQVCEHLHIPVPEKLCVIGIDNEELTRYLSRVALSSVAQGARQMGYQAAKLLHRLLDKEEMPLQRILVPPVRVIERRSTDYRSLTDPAVIQAMHYIRNHACKGIKVDQVLDAVGISRSNLEKRFKEEVGETIHAMIHAEKLEKARSLLISTTLSINEISQMCGYPSLQYFYSVFKKAYDTTPKEYRDVNSEVML", "soluble on expression in E. coli": "soluble"},
      {"sequence": "MDPIASVLEKVKSFTKSSQDLVSRHFGFHENPSRLNPIDILKRLQRETFSDLMKLRERQEKVERIISSQKLSKGGPFQETSTHVRGEVDVLGAILLMGNTDEESFNGLNKEGVRPGLLSRFVFETSLRETDRLVAELVAGYNGAGSHRDFLGGELSLAKVFYKADINDWFSAIAIPVGAHFRDIEASTVSSYQGMSLTEVSELGPPLLSQHNGSAIGLTFRKSNITASLAQSMSNVEVEQGLTAPNRCFRTFGQVTCHILRSLKLSLLGCHQVLTSSSNLHSVGAITVPVSFLRRHTATEPEPSAPPLEMSRNMNHVSSSSIALKLDSLMDESTKLGGWIEIQNSREKQVKWSVSITDNPEDEVGWGMSVGGVVDGSRNHDQFQVESYLKFNIGDRFRLSPCLVYHTNSDGRTIGLMLKSHWSL", "soluble on expression in E. coli": "soluble"},
      {"sequence": "MGSDKIHHHHHHMTTVIAGVSGAIGGALARRYLSSYPDRSLIGLCRRPETAPDDLRNHSGVRLMAWDAEDEQRLDVAEFKAVLEASGPVYTVIYAGGLLHDGQMFPEKRLEDIDGRSMMRSYQVNCLGFVSLMQRLAPALRGKHFKRIAAVSAKVGSISDNQLGGWYAYRASKAALNMVVKNLSIELSRRYAPLACVSLHPGTTLSSLSQPFQQSLEQLTVHEPEQTASNLFSVLESLDARDNGRFISWDGSDLPW", "soluble on expression in E. coli": "not soluble"},
      {"sequence": "MNIVEEHREKCTQCGQCLSVCPRYDDLGLLDLLYGYLEGTSEIEPDSLLSCLTCGLCADACPEALGIKMLISPARQKWVSEHGLTDRQLEHHHHHH", "soluble on expression in E. coli": "not soluble"},
      {"sequence": "LKFGTSWKEAYGTGWLIDWKDVKQDNKFTAYLATNLHVADSLRNKDDYKPYNKDGNQKEFLPGDITTEFSLGKYIDA", "soluble on expression in E. coli": "not soluble"},
      {"sequence": "MTGLINAIPATNKDEYKNVGVYIEHRGDELKRPSIEMIGIGKQLARKVNEKLICVVIGDKVDGIAKEVGEYGCDIVLAAESPELAEYRTMPYAEIIGGYIQEYKPNIFLLAATRNGRDLASRIAVKSRTGITADCTVLDIDENRTLLANRPTYGESTLAEILCRNHRPQMATARPGIFPPAEKEKDHKYEVIKKKVDVDKKLLGKQILKFI", "soluble on expression in E. coli": "not soluble"},
      {"sequence": "PNKFCPGCGHGIVNRIIAEVIEEHGYEKNHVLTLGVGCVCNMNFSWNGDKMQTAHGRASSTAIGVKVALPDTLVMTYQGDGDAYVIGLSETLNTAYRNHNVTVFVINNNNFAMTGGQMSWTTMPGQVTTTSVNGRDIKTTGSPLKVPEMVANFFDVAYVARGSVHSPKEIINLKKYIKNAIEAQLNGEGYSLVEILAPCPTNWGVSLEKSIKWMEEEIVPYYALGEFKQRDG", "soluble on expression in E. coli": "not soluble"},
      {"sequence": "MIIKDILRENQDFRFRDLSDLKHSPKLCIITCMDSRLIDLLERALGIGRGDAKVIKNAGNIVDDGVIRSAAVAIYALGDNEIIIVGHTDCGMARLDEDLIVSRMRELGVEEEVIENFSIDVLNPVGDEEENVIEGVKRLKSSPLIPESIGVHGLIIDINTGRLKPLYLDE", "soluble on expression in E. coli": "soluble"},
      {"sequence": "MGSSHHHHHHGKTIFVIVPTNEEQVAFLEALAKQDELNFDWQNPPTEPGQPVVILIPSDMVEWFLEMLKAKGIPFTVYVEEGGSENLYFQGGGGGGAHSLMRQMMLASVIRFTAVFLGIRRCRGAFVVAPLFVLQPLLQHLQQLITHPLTCLQGGIQWQLHALVEHLVHLQHLPSPRVQLSHVTKKRRAPVRKVVCGRIIHVHRTLLLLKQLRLLGVPGTQRAESSEHGGEPLTAVLVQLDKSIASRSGDNGDGGGRCR", "soluble on expression in E. coli": "not soluble"},
      {"sequence": "MGHHHHHHSHMSHKNMKLKERVLIPVKQYPKFNFVGKILGPQGNTIKRLQEETGAKISVLGKGSMRDKAKEEELRKGGDPKYAHLNMDLHVFIEVFGPPCEAYALMAHAMEEVKKFLVPDMMDDICQEQFLELSYLNGVPEPS", "soluble on expression in E. coli": "not soluble"}
    ]}
  ]
}
